For twelve molecules, Kd and koff results are on record in US20190071490A1 (BETH ISRAEL DEACONESS MEDICAL CENTER, published 2019).

The target of one assay is T1, human α-CGRP 1-37 (WT) (human, C-terminal amide; N-terminal biotin when captured on the SA chip; 125I-labelled in the radioligand assay).
T1 construct: also called α-human
T1 peptide: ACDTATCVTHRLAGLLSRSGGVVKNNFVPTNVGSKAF
The assay can be described thus: Biacore, 37°C, Fab over CGRP on SA chip. The protocol:
(§1) Biacore assay for affinity determination. […] All Biacore assays were conducted in HBS-EP running buffer (10 mM HEPES pH 7.4, 150 mM NaCl, 3 mM EDTA, 0.005% v/v polysorbate P20). CGRP surfaces were prepared by diluting the N-biotinylated CGRP to a concentration of less than 0.001 mg/mL into HBS-EP buffer and injecting it across the SA sensor chip using variable contact times. […] Samples were typically injected for 1 minute at 100 μL/min and dissociation times of at least 10 minutes were allowed. […] An entire titration series (typically generated in duplicate) was fit globally to a 1:1 Langmuir binding model using the BIAevaluation program. This returned a unique pair of association and dissociation kinetic rate constants (respectively, kₒₙ and koff) for each binding interaction, whose ratio gave the equilibrium dissociation constant (KD=koff/kₒₙ). […]
A general note: SPR reads the build-up and loss of mass on a sensor chip optically.

For another assay, the target named is T2, rat α-CGRP (1-37) (rat, C-terminal amide; N-terminal biotin when captured on the SA chip).
T2 construct: also called rat α (1-37); α-rat
T2 peptide: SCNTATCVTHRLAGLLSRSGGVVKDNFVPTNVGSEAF
The assay is described as follows: Biacore, 37°C, Fab over CGRP on SA chip. The protocol: as §1

B1: G1 variant M23 Fab (Fab, V domains shown)
VH: EVQLVESGGGLVQPGGSLRLSCAASGFTFSNYWISWVRQAPGKGLEWVAEIRSESDASATHYAEAVKGRFTISRDNAKNSLYLQMNSLRAEDTAVYYCTVYFDYGLAIQNYWGQGTLVTVSS
VL: EIVLTQSPATLSLSPGERATLSCKASKGVTTYVSWYQQKPGQAPRLLIYGASNRYLGIPARFSGSGSGTDFTLTISSLEPEDFAVYYCSQSYNYPYTFGQGTKLEIK
notes: Fab; constant domains as m1
The Kd is the equilibrium constant for the complex coming apart. As usually defined, the koff is a measure of how fast the partners let go of each other. Lower therefore signals a long-lived complex. As to B1, the dissociation constant (Kd) in the assay with human α-CGRP 1-37 (WT) was 0.81 nM; with rat α-CGRP (1-37) it was 44.4 nM. The koff with human α-CGRP 1-37 (WT) was determined as 0.00013 s⁻¹; in the assay with rat α-CGRP (1-37), 0.000799 s⁻¹.

B2: G1 variant M25 Fab (Fab, V domains shown)
VH: EVQLVESGGGLVQPGGSLRLSCAASGFTFSNYWISWVRQAPGKGLEWVAEIRSESDASATHYAEAVKGRFTISRDNAKNSLYLQMNSLRAEDTAVYYCTVYFDYGLAIQNYWGQGTLVTVSS
VL: EIVLTQSPATLSLSPGERATLSCKASKNVTTYVSWYQQKPGQAPRLLIYGASNRYLGIPARFSGSGSGTDFTLTISSLEPEDFAVYYCSQSYNYPYTFGQGTKLEIK
notes: Fab; constant domains as m1
In the assay with human α-CGRP 1-37 (WT), B2 displayed a Kd of 1.3 nM and a koff of 0.00014 s⁻¹. In the assay with rat α-CGRP (1-37), this molecule returned a Kd of 76 nM and a koff of 0.0014 s⁻¹.

B3: G1 variant M34 Fab (Fab, V domains shown)
VH: EVQLVESGGGLVQPGGSLRLSCAASGFTFSNYWISWVRQAPGKGLEWVAEIRSKSDNTATHYAEAVKGRFTISRDNAKNSLYLQMNSLRAEDTAVYYCTVYFDYGLAIQNYWGQGTLVTVSS
VL: EIVLTQSPATLSLSPGERATLSCKASKNVGTYVSWYQQKPGQAPRLLIYGASNRYLGIPARFSGSGSGTDFTLTISSLEPEDFAVYYCSQSYNYPYTFGQGTKLEIK
notes: Fab; constant domains as m1
B3: the figures for the Kd with human α-CGRP 1-37 (WT) and in the assay with rat α-CGRP (1-37) were 4.04 nM and 121 nM, respectively. The koff stood at 0.000646 s⁻¹ in the assay with human α-CGRP 1-37 (WT) and 0.00217 s⁻¹ with rat α-CGRP (1-37).

B4: G1 variant M32 Fab (Fab, V domains shown)
VH: EVQLVESGGGLVQPGGSLRLSCAASGFTFSNYWISWVRQAPGKGLEWVAEIRSKSDHSATHYAEAVKGRFTISRDNAKNSLYLQMNSLRAEDTAVYYCTVYFDYGLAIQNYWGQGTLVTVSS
VL: EIVLTQSPATLSLSPGERATLSCKASKNVGTYVSWYQQKPGQAPRLLIYGASNRYLGIPARFSGSGSGTDFTLTISSLEPEDFAVYYCSQSYNYPYTFGQGTKLEIK
notes: Fab; constant domains as m1
For B4, in the assay with human α-CGRP 1-37 (WT), the Kd amounted to 1.69 nM and the off-rate constant (koff) was 0.000271 s⁻¹. For the same molecule, in the assay with rat α-CGRP (1-37), the affinity, expressed as Kd, was 164 nM and the koff stood at 0.00296 s⁻¹.

B5: G1 variant M24 Fab (Fab, V domains shown)
VH: EVQLVESGGGLVQPGGSLRLSCAASGFTFSNYWISWVRQAPGKGLEWVAEIRSESDASATHYAEAVKGRFTISRDNAKNSLYLQMNSLRAEDTAVYYCTVYFDYGLAIQNYWGQGTLVTVSS
VL: EIVLTQSPATLSLSPGERATLSCKASKLVTTYVSWYQQKPGQAPRLLIYGASNRYLGIPARFSGSGSGTDFTLTISSLEPEDFAVYYCSQSYNYPYTFGQGTKLEIK
notes: Fab; constant domains as m1
In the assay with human α-CGRP 1-37 (WT), B5 gave a Kd of 0.93 nM and a koff of 0.000148 s⁻¹. Further, in the assay with rat α-CGRP (1-37), binding was put at a Kd of 57.8 nM and the koff was found to be 0.00104 s⁻¹.

B6: G1 variant M33 Fab (Fab, V domains shown)
VH: EVQLVESGGGLVQPGGSLRLSCAASGFTFSNYWISWVRQAPGKGLEWVAEIRSKSDNGATHYAEAVKGRFTISRDNAKNSLYLQMNSLRAEDTAVYYCTVYFDYGLAIQNYWGQGTLVTVSS
VL: EIVLTQSPATLSLSPGERATLSCKASKNVGTYVSWYQQKPGQAPRLLIYGASNRYLGIPARFSGSGSGTDFTLTISSLEPEDFAVYYCSQSYNYPYTFGQGTKLEIK
notes: Fab; constant domains as m1
Turning to B6, in the assay with human α-CGRP 1-37 (WT), the Kd turned out to be 4.69 nM and the koff was 0.00075 s⁻¹. Moreover, in the assay with rat α-CGRP (1-37), binding was put at a Kd of 512 nM and the koff amounted to 0.00922 s⁻¹.

B7: G1 variant M30 Fab (Fab, V domains shown)
VH: EVQLVESGGGLVQPGGSLRLSCAASGFTFSNYWISWVRQAPGKGLEWVAEIRSKSDESATHYAEAVKGRFTISRDNAKNSLYLQMNSLRAEDTAVYYCTVYFDYGLAIQNYWGQGTLVTVSS
VL: EIVLTQSPATLSLSPGERATLSCKASKNVGTYVSWYQQKPGQAPRLLIYGASNRYLGIPARFSGSGSGTDFTLTISSLEPEDFAVYYCSQSYNYPYTFGQGTKLEIK
notes: Fab; constant domains as m1
In the assay with human α-CGRP 1-37 (WT), B7 displayed a Kd of 3.69 nM and a koff of 0.00059 s⁻¹. In the assay with rat α-CGRP (1-37), the Kd was 354 nM and the koff stood at 0.00638 s⁻¹.

B8: G1 variant M27 Fab (Fab, V domains shown)
VH: EVQLVESGGGLVQPGGSLRLSCAASGFTFSNYWISWVRQAPGKGLEWVAEIRSESDASATHYAEAVKGRFTISRDNAKNSLYLQMNSLRAEDTAVYYCTVYFDYGLAIQNYWGQGTLVTVSS
VL: EIVLTQSPATLSLSPGERATLSCKASKNVATYVSWYQQKPGQAPRLLIYGASNRYLGIPARFSGSGSGTDFTLTISSLEPEDFAVYYCSQSYNYPYTFGQGTKLEIK
notes: Fab; constant domains as m1
For B8, in the assay with human α-CGRP 1-37 (WT), binding was characterised by a dissociation constant (Kd) of 2.23 nM and the koff turned out to be 0.000357 s⁻¹. In the assay with rat α-CGRP (1-37), this molecule returned an equilibrium dissociation constant (Kd) of 189 nM and a koff of 0.00341 s⁻¹.

B9: G1 variant M26 Fab (Fab, V domains shown)
VH: EVQLVESGGGLVQPGGSLRLSCAASGFTFSNYWISWVRQAPGKGLEWVAEIRSESDGSATHYAEAVKGRFTISRDNAKNSLYLQMNSLRAEDTAVYYCTVYFDYGLAIQNYWGQGTLVTVSS
VL: EIVLTQSPATLSLSPGERATLSCKASKNVTTYVSWYQQKPGQAPRLLIYGASNRYLGIPARFSGSGSGTDFTLTISSLEPEDFAVYYCSQSYNYPYTFGQGTKLEIK
notes: Fab; constant domains as m1
In the assay with human α-CGRP 1-37 (WT), B9 had a Kd of 0.93 nM and a koff of 0.000148 s⁻¹. In the assay with rat α-CGRP (1-37), this molecule gave a dissociation constant (Kd) of 51.3 nM and a koff of 0.000924 s⁻¹.

B10: G1 variant M31 Fab (Fab, V domains shown)
VH: EVQLVESGGGLVQPGGSLRLSCAASGFTFSNYWISWVRQAPGKGLEWVAEIRSKSDGSATHYAEAVKGRFTISRDNAKNSLYLQMNSLRAEDTAVYYCTVYFDYGLAIQNYWGQGTLVTVSS
VL: EIVLTQSPATLSLSPGERATLSCKASKNVGTYVSWYQQKPGQAPRLLIYGASNRYLGIPARFSGSGSGTDFTLTISSLEPEDFAVYYCSQSYNYPYTFGQGTKLEIK
notes: Fab; constant domains as m1
On to B10, for which, in the assay with human α-CGRP 1-37 (WT), binding was characterised by a dissociation constant (Kd) of 2.17 nM and the koff is 0.000347 s⁻¹. Besides, in the assay with rat α-CGRP (1-37), the affinity, expressed as Kd, was 201 nM and the koff came out at 0.00361 s⁻¹.

B11: G1 variant M29 Fab (Fab, V domains shown)
VH: EVQLVESGGGLVQPGGSLRLSCAASGFTFSNYWISWVRQAPGKGLEWVAEIRSESDASATHYAEAVKGRFTISRDNAKNSLYLQMNSLRAEDTAVYYCTVYFDYGLAIQNYWGQGTLVTVSS
VL: EIVLTQSPATLSLSPGERATLSCKASKNVGTYVSWYQQKPGQAPRLLIYGASNRYLGIPARFSGSGSGTDFTLTISSLEPEDFAVYYCSQSYNYPYTFGQGTKLEIK
notes: Fab; constant domains as m1
Consider B11, for which the Kd in the assay with human α-CGRP 1-37 (WT) is 2.38 nM; in the assay with rat α-CGRP (1-37) it was 199 nM. Also, the values for the koff with human α-CGRP 1-37 (WT) and with rat α-CGRP (1-37) were 0.00038 s⁻¹ and 0.00359 s⁻¹, respectively.

B12: G1 variant M28 Fab (Fab, V domains shown)
VH: EVQLVESGGGLVQPGGSLRLSCAASGFTFSNYWISWVRQAPGKGLEWVAEIRSRSDNSATHYAEAVKGRFTISRDNAKNSLYLQMNSLRAEDTAVYYCTVYFDYGLAIQNYWGQGTLVTVSS
VL: EIVLTQSPATLSLSPGERATLSCKASKNVDTYVSWYQQKPGQAPRLLIYGASNRYLGIPARFSGSGSGTDFTLTISSLEPEDFAVYYCSQSYNYPYTFGQGTKLEIK
notes: Fab; constant domains as m1
For B12, in the assay with human α-CGRP 1-37 (WT), the Kd amounted to 0.62 nM and the koff worked out at 9.96e-05 s⁻¹. In the assay with rat α-CGRP (1-37), this molecule registered a Kd of 69.4 nM and an off-rate constant (koff) of 0.00125 s⁻¹.
